The results in this text go back to patent US20150086555A1.

Conditions in all cases: remark: other sources report otherwise
The target of assay [1] is recombinant soluble homotrimeric HA of A/California/4/09 (H1N1) (Influenza A virus A/California/04/2009(H1N1)). Briefly: HA microarray, BCC supernatant.
Assay [2] deals with recombinant soluble homotrimeric HA of A/Japan/305/57 (H2N2) (Influenza A virus A/Japan/305/1957(H2N2)). Briefly: HA microarray, BCC supernatant.
Assay [3] addresses recombinant soluble homotrimeric HA of A/Netherlands/219/03 (H7N7) (Influenza A virus A/Netherlands/219/03(H7N7)). Briefly: HA microarray, BCC supernatant.
The target of assay [4] is recombinant soluble homotrimeric HA of A/Solomon Islands/3/06 (H1N1) (Influenza A virus A/Solomon Islands/3/2006(H1N1)). Briefly: HA microarray, BCC supernatant.
Assay [5] concerns the target recombinant soluble homotrimeric HA of A/duck/Yangzhou/02/05 (H8N4) (Influenza A virus A/duck/Yangzhou/02/2005(H8N4)). Briefly: HA microarray, BCC supernatant.
Assay [6] deals with recombinant soluble homotrimeric HA of A/swine/Ontario/01911-2/99 (H4N6) (Influenza A virus A/Swine/Ontario/01911-2/99 (H4N6)). Briefly: HA microarray, BCC supernatant.
Assay [7] concerns the target recombinant soluble homotrimeric HA, A/California/4/09 H1N1 (Influenza A virus A/California/04/2009(H1N1)). Briefly: microarray, transfection SN IgG, trimeric HA.
The target in assay [8] is recombinant soluble homotrimeric HA, A/Japan/305/57 H2N2 (Influenza A virus A/Japan/305/1957(H2N2)). Briefly: microarray, transfection SN IgG, trimeric HA.
Assay [9] concerns the target recombinant soluble homotrimeric HA, A/Netherlands/219/03 H7N7 (Influenza A virus A/Netherlands/219/03(H7N7)). Briefly: microarray, transfection SN IgG, trimeric HA.
Assay [10] concerns the target recombinant soluble homotrimeric HA, A/Solomon Islands/3/06 H1N1 (Influenza A virus A/Solomon Islands/3/2006(H1N1)). The assay is described as follows: microarray, transfection SN IgG, trimeric HA.
Assay [11] has as its target recombinant soluble homotrimeric HA, A/South Carolina/1/18 H1N1 (Influenza A virus A/South Carolina/1/18 (H1N1)). The assay is described as follows: microarray, transfection SN IgG, trimeric HA.
For assay [12], the target named is recombinant soluble homotrimeric HA, A/chicken/Vietnam/NCVD-016/08 H5N1 (Influenza A virus A/chicken/Vietnam/NCVD-016/2008(H5N1)). Briefly: microarray, transfection SN IgG, trimeric HA.
For assay [13], the target named is recombinant soluble homotrimeric HA, A/duck/Yangzhou/02/05 H8N4 (Influenza A virus A/duck/Yangzhou/02/2005(H8N4)). The assay is described as follows: microarray, transfection SN IgG, trimeric HA.
The target of assay [14] is recombinant soluble homotrimeric HA, A/northern shoveler/California/HKWF115/07 H6N4 (Influenza A virus A/northern shoveler/California/HKWF115/2007(H6N1)). Briefly: microarray, transfection SN IgG, trimeric HA.
In assay [15] the target is recombinant soluble homotrimeric HA, A/swine/Ontario/01911-2/99 H4N6 (Influenza A virus A/Swine/Ontario/01911-2/99 (H4N6)). The assay is described as follows: microarray, transfection SN IgG, trimeric HA.
In assay [16] the target is recombinant soluble homotrimeric HA of A/Wisconsin/67/05 (H3N2) (Influenza A virus A/Wisconsin/67/2005(H3N2)). Briefly: HA microarray, BCC supernatant.
For assay [17], the target named is recombinant soluble homotrimeric HA, A/Egypt/3300-NAMRU3/08 H5N1 (Influenza A virus A/Egypt/3300-NAMRU3/2008(H5N1)). The assay is described as follows: microarray, transfection SN IgG, trimeric HA.
In assay [18] the target is recombinant soluble homotrimeric HA, A/Wisconsin/67/05 H3N2 (Influenza A virus A/Wisconsin/67/2005(H3N2)). The assay is described as follows: microarray, transfection SN IgG, trimeric HA.

B1: TCN-548 (5092_P01) (antibody, V domains shown)
VH: QVQLQESGPGLVKPSETLSLTCTVSSGPMSDYYWSWIRQPPGKGLEWIGHVSVSHGGRTKSNPSVMSRVTISVETSKNQFSLKLTSVTAADTAVYYCARLNYYDRSGYHSPDGPSNNWFDPWGQGTLVTVSS
VL: not shown
As for B1, the Trimeric HA Binding: RLU in assay [1] is 234 RLU; in assay [2], 416 RLU; in assay [3], 758 RLU; in assay [4] it was 283 RLU; in assay [5], 184 RLU; in [6] it was 240 RLU. The Trimeric HA Binding: RLU in assay [7] worked out at 818 RLU; in assay [8] it was 1020 RLU; in assay [9], 2130 RLU; in assay [10], 750 RLU; in [11], 1150 RLU; in assay [12], 1060 RLU. The values for the Trimeric HA Binding: RLU in assay [13], in assay [14] and in assay [15] were 5740 RLU, 2100 RLU and 1620 RLU, respectively.

B2: TCN-547 (5092_F11) (antibody, V domains shown)
VH: QVQLQESGPGLVKPSQTLSLTCTVSGDSISSVDHYWSWIRQHPVKGLEWIGFMYYSASTYYNPSLKSRVTISTDTSKNQFSLRLSSVTAADTAVYYCARGTCAGDCSLHYYYYGLDVWGQGRTVTVSS
VL: DIQMTQSPSSLSASVGDRVTITCRASQSISSYLNWYQHKPGKAPKVLMYAVSILQSGVPSRFSGSGSGADFTLTISSLQPEDFATYYCQQSYSSPLTFGGGTKVEIK
On to B2, for which the Trimeric HA Binding: RLU in assay [2] was found to be 40 RLU; in assay [3] it was 401 RLU; in assay [4], 155 RLU; in [16], 16900 RLU; in [5], 278 RLU; in assay [6] it was 252 RLU. Besides, the Trimeric HA Binding: RLU turned out to be 16800 RLU in assay [17]; 1350 RLU in assay [8]; 2090 RLU in assay [9]; 1080 RLU in assay [10]; 2020 RLU in assay [11]; 6970 RLU in assay [18]. In addition, the Trimeric HA Binding: RLU worked out at 1320 RLU in [12], 3340 RLU in [13], 2620 RLU in [14] and 1600 RLU in assay [15].
